Among the data in the NTF2 design screens of Basanta et al. (2020) are protease stability score values, retold here.

A short description of the data set: protease stability score; higher = more stable; yeast display proteolysis, trypsin and chymotrypsin.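 Note: log10 excess protease needed over predicted unfolded state with 0 meaning unfolded.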
Turning to “DEEDEKHIDDVLKQGDFDEMARNADKDATVRIGEKEYRGREDVVRMLEIIHKRADEVHVDSVRVTNGRLKMDVVFDVNGVQANVILVINVHNGKIKNITLKYRNEELSRKLDKILR”, the protease stability score was found to be 0.821. As for “DEEDEQKIAKDFVRALERGDEDRVMELADPNVRIVIGDKRYEGREELKKLVRTFKKRADHAEVHSIDIRNGTVIVDYVIHHNGRNSQQYLYVSFNNGRIKSMRVQDG”, the protease stability score stood at 2.07. The sequence “DEEDEQKLAQTLAEVWKQNDEDQFVRLLDKDARVKVGDNEFRGREEAKRMMQELHRRVDHMEIKSVHAKNGSITATLRAEINGKEWRFILEAVYHNGQVKSVHIRDQ” had a protease stability score of 1.68. The same measure for “DEEDEREVAKQAVDDLVKGNPDRASELADPNVHVEIGDKTYRGQTQMASALKDFRKNVDSVQIDDLKLHGNKADVDMRVDHNGQQQKYHVIVIVHNGRVSELKIKEK”: 1.48. As for “DEEDERKFAEEFHKVLQTNNEEEIRKMFDPNVTAHVGDKRIHGREEVATVIARLARRADHIRLEHVEVENGRITMTLRADVDGRDVQFRVILTVRNGVVQEVQFDYTSEDQFREIQK”, the protease stability score was determined as 1.59. For the sequence “DEEDERRKVQDVAKAIKKGNEKELRKLADEDAKWRVGDTDLHGMERIQKDQATRRREVDNVEIKSVDVHNGRAHVTFVVNHNGKNVEVTNTADFKNGKVKNVQVDPSKVEELKK”, the protease stability score is -0.328.

With “DEEDERTVKERMKKNNFDELAKNADENARATYGDKTYHGREQVRKAAKDFKDAVDRVKIDSISVHNGTVRMEFTVVINGRHFEMVLYVHVHNGKVQHMEFQATDDKIRKDLKRLQE”, the protease stability score was -0.275. The same measure for “DEEDESRHAEIAIRALAQGDEEELRRQVDPNARVRIGEFNVHGREAAHKAVKTLQEEFDHVDLTHVTTRGEKARVDVKYKKNGKEVTFQLEAKVHDGKVKELQMEKG”: -0.241. Regarding “DEEDFNNAQSMIKDEEQGDEEQITRNLDPNVKIRVGDKRLHGRENYAREVARKARRIRVEVHIRSVSHSGNHIRIDVEVHEQQNGKPDHSRFVVLMHYNNGTVKKAQFDDTD”, the protease stability score was determined as 0.103. “DEEDHKKILQKIADVYQRGNPNQQRDLMDENARVVIGNTKFHGREQAMEAAEERRRQVDRIQLTSIDVHGNKFHIRVTLDINGKTVDIHIDVEVHNGKIKDVQVDPRAEKFFKG”: the protease stability score worked out at 0.202. For the sequence “DEEDHQKIAHSLAEVLKTGDPDRMMELADENVKFQVGDKTYHGREELKKYMEQLHRHADHIEIDHISVQGDKIRIHARMNVNGREHTFVIQVEIHNGRAKSITFQYG”, the protease stability score is 1.53. In the case of “DEEDIAHQWQDKMRTAFKDNDPEQFTQLADEDAKMHVGDTEYHGRDTIMKTLVDEAKRADRITFNVQDFRVNGNNVVVRLEIRMQHNGKEDSKVVRLVFNQSGDDMRLRYAHDG”, the protease stability score is 0.338. “DEEDIARQLAEDFRKVLENGDPDEMRKNADKDARLKVGDKQVHGRDEMVKYFEKLNKEYDRVHIHIKSVSAQGDKLRVEIQVVWNSNGKNDKTTYDLVFQHDDGHVKLLEIRES” gave a protease stability score of 0.539. As to “DEEDIRRIVHEFNRAVQRGNPDDVVRLLDKHAKIVVGEFDVTGREDARKFAEQLRSMADHVTIKSMSVQGDKAHVVIVFDINGKKLTLTFEVQLHNGRVQNLHVDVRDEEEFSRNVG”, the protease stability score turned out to be 0.782. “DEEDKADQFLRDLRQALQHNDENRMKELADKDARLNVGDKSVQGREQVVEHLVEKAKQVDDIKINIHTIKVHDGRFKFRATFVFNHNGKEESDEIVLVAHESNGKLKLLEVKEG”: the protease stability score is 1.14. For the sequence “DEEDKKKLNHTVANVIQHGDEKQARRLMDPNVKVVIGDKTYNGRHKATEALKTLRDRADEIRVHDFRLEGDHINIIIELHINGQQTTLEIEVQFSGDKIKSVVFKTR”, the protease stability score turned out to be 0.795.

As for “DEEDKKRLDTFDDNEDRGDRTKVRELADPNAKYEYGDNTVHGREDLEKMVHHLKNQLRIRVKSVEKRMHNGTLRASQREQQDHNGRPDDNSFDQDVHIHNGRIKQNVVEERK”, the protease stability score is -0.15. With “DEEDKMTELTSRMIQAVRQNDFHKIVDQFDKNVTFEVGDHRVHGRTQAQEWARHLLRRVDHATVNLKHVEVQGDTARVKMQLILDRNGRRETRTVIIEAEIDGDKVRAKKLSIG”, the protease stability score was 1.66. As to “DEEDLDRVESALRTNDPDTLSEMADKDVKVEYGDKSYQGRERFQHFIKQLAHQVDHVEVRSVDKRGDRLKATRVLVINGRSITVVVTIEARNGRIKMLEMSARNESQEKKLVELFQ”, the protease stability score worked out at 0.941. The same measure for “DEEDLDTVAQTFVTALKQGDPHQVMKLADEDVKATVGDERVHGSQHVNELIKRFRRNVDHVDIEDYRIHNGKIRMRVRLTVNGRTQNLNMVLIVRNGRLKMFKIDPQDVRQFHG”: 0.972; for “DEEDLERMQDFMRAINKGDEDRLTKLVDENVHWVVGDKRVHGREQLRKEVDRRREKMSIKFDRVDAHADNGHAVVNIEYNVKHNGQPTSNFVRVQAEATNGKIKEVVVQEDK”: -0.279; for “DEEDLHHLAREMKDLMQRGDHKRFEELADENARLIIGDKTVTGRTRIKDELRKWREEADHIQIHDVRASGNRINLDIRVVVNGQEHRFIVIIELKNGKVSQMEVEDS”: 1.91. With “DEEDLHNALNAWKAFNTGDPDRAVQLADPNVNVVIGDKHVHGREQLSHEIKRVRHESNVQVRHVNNDNQGEKAKVQAEMVDTQNGQPRTFTVDIDVRAHNGKLKEVKVQEQD” the figure was -0.322; with “DEEDLHRNMKQMLKDFNTGDPDKIQEQIDPNAKVQVGDTTFHGREEAHRMARDFRHQVDHIQLKEVKVRGNEFEASVVVKYDGKERRFVMQANVHNGKVKKLWFEDK”, 0.063.

In turn, “DEEDLKEFVKILKEGDPEKLKKMVDENVTIEIGDKRVSGKEKARDLAENFRERVDSHHIHRVDIEGERMVVDVEVSVNGRRIRYTLFAEVHNGKLKQQSVQYTSEEQRKLLTEMWT” gave a protease stability score of 0.3. The sequence “DEEDLKHMNENFESGNPDQIVEMFDKDARITVGNKKYRGREDIRKFAEMIRKQVDNRRLKSVEVEGNKFRIQWMFVVNGRRIEAVLHVHAHNGKVKEMSIEVTNPEDQTQYDRDAD” displayed a protease stability score of 1.66. In turn, “DEEDLKKLAKELEKAIKTGDPQKIVDMADPNAKAQIGDKEVHGQENLHEAMQKLSREVDHIEIRSLSIHGEKVELVFVLQVNGRKRTYTVEMTAHNGKITHMTWRHQ” gave a protease stability score of 0.284. Take “DEEDLKKVVDQLIKAVVNGDVEKIVKYIDEDVEFKLGDTKYKGKEEAKKVVTKLVQVGAEVHVDHVRVKGDEAEVDTVWHIGNTEAHMTVKYVVRGDKVERVEVRWTEEVKKAIKAG”: the protease stability score was 1.46. The same measure for “DEEDLKNQARDFIEALETGDEDQIARLADPDAEADVGDTKYTGREEVREYMKHISDNVDHIQLKDMKVSGNEITIVAVLNVNGHEFDMEIHIELHNGRAKTIRIDPRAINHMTK”: 0.746. Turning to “DEEDLKRLAETFADALQRNDPSQLNKMIDPNAKVQYGEKTFHGREKLHEWAHEMKKQADHFEIRSITVEGESVVIDLRMIVNGHERRLNLTMHLKNGRIQHLRADSR”, the protease stability score turned out to be 0.943. In the case of “DEEDLKRLREMHKAVSRGDPRQIQENMDPNVRVQYGDKTIHGREHIASELITKMKHWRLDFKRYHATVTPNRVQVHIDYIERHNGKPHKNKNKAEAEVDNGKIKRYQQSSDG”, the protease stability score was -0.03.

Take “DEEDLKRVVDILHQNDPDQMIEMADENVKLEVGDKEFHGREEFSKFQRRIRDAVDHVEVKSLSHHNGRINMTFVLQINGRRIEFSAVVRVHNGKIKSMKVNATNEDDQSRFESQLS”: the protease stability score was determined as 0.192.

With “DEEDLKTAHRRQRTNDFDRIRNKADKDAHVQVGDTQVHGREEVKKFMTLLKKRVDHVEIHDIEKKPGRLVVELRMNVNGQEIDLVVMFQFKNGSLKHMRFKVRDEDDKRKLEKALS”, the protease stability score is 0.432. Turning to “DEEDLKTMFDVMETGDPNQIADQFDKDARVVVGNRRVRGKEHIHTWAHEWRKNVDHQQVDSYEIKGDNARVDMQATINGTRFVFEIIIQVHNGKAKEMELRVRDEEEKKELDEVLE”, the protease stability score is -0.026. For “DEEDLNKFAEHVVHALQEGNPDQLMHLADENVKMTVGDTSVEGKDQVSEYWTEMKERIDHFSYTSVDVRGNTIEIRFTADVDGRELRQVLIIEVRNGRAKSISIEDG”, the protease stability score came out at 1.88. “DEEDLQKLARSFQENLKTGNPDELMKLFDEDANLHYGDKKVHGREDIRRWADEMRRRVDKVTVLQVDAHGDKMDAVIVQRFDGRDVMISVDAKFHNGRFKEVVYRVRDEEHEKRLHT” displayed a protease stability score of 1.38.

With “DEEDLQRVAEEVARALDTGNPDKFNSLLDKDAKVNYGDKEYTGREELKKLQERIKEHVDHVHVKRVKVEGEKIHLDIEFEVNGRRFRDTIEARVHNGELQKVHVDPNFVRELKQ”, the protease stability score turned out to be 0.842. Sequence “DEEDLREIVEEMRTGDEDKFNKNLDENVKVEIGDKTWQGREQAQKMHADVMRRADNVRLKEYEVHNGHVDADLTVEINGRSVEYVMKIEIDNGTMKRIEVTVRDETQEDIQRKVLE” had a protease stability score of 0.309. Consider “DEEDLRHLIELMEKGDFSRIADQADEDVRVDIGDKRIHGREQVLTYAEKLSKNIDHVKIQHYHVEGNKLVVDMVIVVNGKDVRATLTAEISNGRLKHMELHATNEEQQTRLKEIIS”, for which the protease stability score was 0.871. On to “DEEDLRKQANEVAEMFMHGDPTDAREQFDKHAEVQYGDKVVHGKEQAAQLVKEFRDNVDRVELKRVEAHGDKVTVTVVFTVNGRKVVIVFEMRIHNGKIKSVDAHVTSEELHKRMQD”, for which the protease stability score was found to be 0.155. “DEEDLRTRASEFNKVLENNDPDRLNKLADKDATANYGDHEYHGREDIHHMAETMVRQVDRIEIKHVQARNGRVKVDLIMRVNGKEVKVDVTMEFHNGHLKLVTFDPDQVRKVEG” came in with a protease stability score of 0.673. Sequence “DEEDLSDVLDKMDKAIVRGDEQKLQDLADPNVRAEIGDQKYHGRDAITMFFKVLTEQVDHMRIKTVELQGNKLYIVVSAHFNGQTYDVRFVADAHNGRITRIYVDPQAQKRMEE” returned a protease stability score of 1.29. “DEEDLTRLHKLWRNNNWKELVNQMDPNARVTVGDEVIQGRENVTHWADRVEHQIDHYEIKDFRRQGNKILVLFRAEVNGQRFEAIVAVLMVNGDVHHLEVRFRDERDEKKFKEHVS”: the protease stability score came out at 1.48.

On to “DEEDMDEVEKAIRKNDPEKMRDLADENAKASVGDNQFHGRDNVENFMKHLTDHADHVQVDSVEKHNGRVVVNAQLDINGEQIQIVIRIDVHNGKIKRFSIEVRDEEAHHFMREMVS”, for which the protease stability score came to 0.895. The same measure for “DEEDMKKVVKQLLEAAQNGNTEKIVQLVKKDVEFKLGDTEYRGQEDVRKVVKKLRDIGAEFHVKEYEATGGEAKVKTVWHIGDNEAHVEVKYTVEDDKVDRVEVRWSEKAQKQIKKG”: 0.801; for “DEEDMKRVQDLIKAFQEGDPDKVVEQIDPNARIEVGDQHVSGRQHIRETIHNRVEEAEIHYESITLRVRGNTVEVRMVFVENKNGRPKRVHVKIEVQMHNGKVKEIREQEVS”: 0.969. The same measure for “DEEDMNTLQKMNEKNDEEKLQKLADEDARFVVGDKTLTGHHEFQTFVHRFVKHVDHLQVDSVEVQGNQVDLDVRAEINGRHYRFQIVIIIQNGRLKEYRLQATDEDEEEKFKKMIE”: 1.25.
